From article PMC7060540 come the findings set out here.

In the experiment the target is HIS-CbuHMGA (Catalpa bungei). Kind of experiment: BLI; Octet QK (Forte-Bio); GST-CbuSPL9 at 2381, 1191, 595.3, 297.6 and 148.8 nM on HIS-CbuHMGA; which protein was immobilised, buffer and temperature not told. (In general: In BLI a coated tip is dipped into the sample, and binding shifts an interference pattern.)

Take GST-CbuSPL9 (natural protein): the equilibrium dissociation constant (Kd) (commonly the equilibrium constant for the complex coming apart) was 311 nM.
